Target: Purified β-actin (Cytoskeleton) (UniProt P60709)
Assay: SPR

Substance: GST-tagged Myo1c neck plus tail (domain or fragment)
- Kd: < 2000 nM

Source: paper PMC3392929
